Drawing on article PMC2904616, this text covers Km and kcat for one protein.

Substrate in the data set: CC(C)=CCC/C(C)=C/CC/C(C)=C/CO[P@@](=O)(O)OP(=O)(O)O
Put plainly: purified protein. Format: biochemical, Streptomyces avermitilis. The following applies: MgCl2; labelled compound ([1-3H]FPP).

Broadly, the Km is the substrate concentration at which the rate is half of its maximum. Broadly, the kcat is the number of substrate molecules converted per active site and unit of time at saturation.

B1: SAV_76 (avermitilol synthase) (Streptomyces avermitilis MA-4680 = NBRC 14893) (protein)
chain: MPQDIDFGLPAPAGISPGLEATRRHNLGWVRRLGLVGDGPSLAWYTSWDMPRLAACGFPHARGAALDLCADAMAFFFVFDDQFDGPLGRDPARAARVCRRLTGIVHGAGPGPGADACSAAFADVWARSTDGAHPGWVARTAHEWEYYFAAQAHEAINRLRGTPGDMESYLQVRRGIAGTDLPLSLGERAAGITVPAAAFHSPQLRIMREAAIDVTLMCNDVYSLEKEEARGDMDNLVLVIEHARRCTRDEAVTAARGEVARRVIRFEQLAREVPALCAQLGLSAVERAHVDTYLGVMEAWMSGYHAWQTQTRRYTGAPHVLPSTGPGYFDEVLPT
For the protein B1, the Km is 1.06 ± 0.11 µM and the kcat was 0.040 ± 0.001 s⁻¹.
